In experiment [1] the target is HLA DRB1*0101 (human). Nature of the experiment: competition with 125I probe peptide, purified HLA.
The next experiment deals with HLA DRB1*0301 (human). The experiment in a line: competition with 125I probe peptide, purified HLA.
The target of experiment [2] is HLA DRB1*0401 (human). Nature of the experiment: competition with 125I probe peptide, purified HLA.
Experiment [3] concerns the target HLA DRB1*0404 (human). Nature of the experiment: competition with 125I probe peptide, purified HLA.
In experiment [4] the target is HLA DRB1*0405 (human). The experiment in a line: competition with 125I probe peptide, purified HLA.
Experiment [5] deals with HLA DRB1*0701 (human). Nature of the experiment: competition with 125I probe peptide, purified HLA.
For experiment [6], the target named is HLA DRB1*0802 (human). Nature of the experiment: competition with 125I probe peptide, purified HLA.
Experiment [7] concerns the target HLA DRB1*0901 (human). Nature of the experiment: competition with 125I probe peptide, purified HLA.
In experiment [8] the target is HLA DRB1*1101 (human). The experiment in a line: competition with 125I probe peptide, purified HLA.
The next experiment has as its target HLA DRB1*1302 (human). The experiment in a line: competition with 125I probe peptide, purified HLA.
Experiment [9] deals with HLA DRB1*1501 (human). Nature of the experiment: competition with 125I probe peptide, purified HLA.
Experiment [10] deals with HLA DRB4*0101 (human). Nature of the experiment: competition with 125I probe peptide, purified HLA.
In a further experiment the target is HLA DRB5*0101 (human). Nature of the experiment: competition with 125I probe peptide, purified HLA.
Experiment [11] concerns the target HLA DRB1*0101 (human). The experiment in a line: competition with 125I probe peptide, purified HLA; crude peptide batch.
The target of experiment [12] is HLA DRB1*0401 (human). Described as above.
Experiment [13] addresses HLA DRB1*0404 (human). The experiment is described as above.
Experiment [14] has as its target HLA DRB1*0405 (human). Described as above.
The target of experiment [15] is HLA DRB1*0701 (human). The description is as above.
Experiment [16] has as its target HLA DRB1*0802 (human). Described as above.
Experiment [17] addresses HLA DRB1*0901 (human). The description is as above.
In experiment [18] the target is HLA DRB1*1101 (human). The experiment is described as above.
Experiment [19] has as its target HLA DRB1*1201 (human). The experiment is described as above.
The target of experiment [20] is HLA DRB1*1501 (human). The experiment is described as above.
Experiment [21] has as its target HLA DRB4*0101 (human). The experiment is described as above.
In experiment [22] the target is HLA DRB1*1201 (human). The experiment in a line: competition with 125I probe peptide, purified HLA.
In the next experiment the target is HLA DRB3*0101 (human). The experiment in a line: competition with 125I probe peptide, purified HLA.

As to WKHIRLECVLMYKAR (modifications not checked) [HPV31.E2.033 HTL epitope], the IC50 (usually the point on the concentration scale where inhibition reaches its midpoint) is 1440 nM with HLA DRB1*0101 (human) [1]; 146 nM with HLA DRB1*0301 (human); 263 nM in the experiment with HLA DRB1*0401 (human) [2]; 307 nM in the experiment with HLA DRB1*0404 (human) [3]; 71 nM in the experiment with HLA DRB1*0405 (human) [4]; 16400 nM with HLA DRB1*0701 (human) [5]. Moreover, the IC50 with HLA DRB1*0802 (human) [6] was 476 nM; with HLA DRB1*0901 (human) [7] it was 11.8 µM; with HLA DRB1*1101 (human) [8] it was 81 nM; in the experiment with HLA DRB1*1302 (human), 54 nM; with HLA DRB1*1501 (human) [9], 134 nM; with HLA DRB4*0101 (human) [10], 102 nM. The same molecule had an IC50 with HLA DRB5*0101 (human) of 412 nM.

On to WKHMRLECAIYYKAR (modifications not checked) [HPV16.E2.033 HTL epitope], for which the IC50 with HLA DRB1*0101 (human) [1] was found to be 701 nM; with HLA DRB1*0301 (human), 437 nM; in the experiment with HLA DRB1*0401 (human) [2], 245 nM; in the experiment with HLA DRB1*0404 (human) [3], 6860 nM; with HLA DRB1*0405 (human) [4], 557 nM; with HLA DRB1*0701 (human) [5] it was 504 nM. Also, the IC50 with HLA DRB1*0802 (human) [6] was 90 nM; with HLA DRB1*0901 (human) [7], 6.33 µM; in the experiment with HLA DRB1*1101 (human) [8], 2400 nM; in the experiment with HLA DRB1*1302 (human) it was 248 nM; with HLA DRB1*1501 (human) [9] it was 1390 nM; with HLA DRB4*0101 (human) [10], 766 nM. The IC50 in the experiment with HLA DRB5*0101 (human) worked out at 280 nM.

As for DWVMAIFGVNPTVAEGF (modifications not checked) [HPV45.E1.228 HTL epitope], the IC50 with HLA DRB1*0101 (human) [1] was determined as 487 nM; with HLA DRB1*0301 (human), 3750 nM; with HLA DRB1*0401 (human) [2], 91 nM; with HLA DRB1*0404 (human) [3] it was 20 nM; with HLA DRB1*0405 (human) [4], 92 nM; with HLA DRB1*0701 (human) [5] it was 52 nM. Moreover, the IC50 stood at 4260 nM with HLA DRB1*0802 (human) [6]; 17.9 µM with HLA DRB1*0901 (human) [7]; 4960 nM with HLA DRB1*1101 (human) [8]; 68 nM in the experiment with HLA DRB1*1302 (human); 108 nM with HLA DRB1*1501 (human) [9]; 571 nM in the experiment with HLA DRB4*0101 (human) [10]. This molecule also showed an IC50 with HLA DRB5*0101 (human) of 387 nM.

For the molecule LQAIELQLTLETIYN (modifications not checked) [HPV16.E2.070 HTL epitope], the IC50 with HLA DRB1*0101 (human) [11] was 42 nM; with HLA DRB1*0401 (human) [12] it was 37 nM; with HLA DRB1*0404 (human) [13], 282 nM; in the experiment with HLA DRB1*0405 (human) [14], 384 nM; with HLA DRB1*0701 (human) [15] it was 3.28 µM; in the experiment with HLA DRB1*0802 (human) [16], 7.61 µM. Also, the IC50 with HLA DRB1*0901 (human) [17] is 1430 nM; in the experiment with HLA DRB1*1101 (human) [18], 4.38 µM; with HLA DRB1*1201 (human) [19] it was 268 nM; in the experiment with HLA DRB1*1501 (human) [20] it was 688 nM; in the experiment with HLA DRB4*0101 (human) [21] it was 2 nM.

As for FHSIAGQYRGQCNTC (modifications not checked) [HPV45.E6.127 HTL epitope], the concentration for half-maximal inhibition (IC50) in the experiment with HLA DRB1*0101 (human) [1] came to 107 nM; in the experiment with HLA DRB1*0401 (human) [2], 8.6 nM; with HLA DRB1*0404 (human) [3] it was 3300 nM; with HLA DRB1*0405 (human) [4], 358 nM; with HLA DRB1*0701 (human) [5], 2400 nM; with HLA DRB1*0802 (human) [6] it was 7640 nM. Besides, the IC50 is 1.99 µM with HLA DRB1*0901 (human) [7]; 416 nM with HLA DRB1*1101 (human) [8]; 10.1 µM in the experiment with HLA DRB1*1201 (human) [22]; 574 nM with HLA DRB1*1501 (human) [9]; 1300 nM in the experiment with HLA DRB4*0101 (human) [10]; 43 nM with HLA DRB5*0101 (human).

For the molecule QRFHNIRGRWTGRCM (modifications not checked) [HPV16.E6.130 HTL epitope], the IC50 with HLA DRB1*0101 (human) [1] turned out to be 36 nM; with HLA DRB1*0401 (human) [2], 2900 nM; with HLA DRB1*0404 (human) [3], 4110 nM; in the experiment with HLA DRB1*0405 (human) [4] it was 4470 nM; in the experiment with HLA DRB1*0701 (human) [5], 277 nM; in the experiment with HLA DRB1*0802 (human) [6], 894 nM. Moreover, the IC50 came to 574 nM with HLA DRB1*1101 (human) [8]; 14.6 µM with HLA DRB1*1201 (human) [22]; 5310 nM in the experiment with HLA DRB1*1302 (human); 17200 nM in the experiment with HLA DRB1*1501 (human) [9]; 4550 nM in the experiment with HLA DRB4*0101 (human) [10]; 919 nM with HLA DRB5*0101 (human).

In the case of TGRCIACWRRPRTET (modifications not checked) [HPV31.E6.132 HTL epitope], the IC50 with HLA DRB1*0101 (human) [1] came out at 3170 nM; with HLA DRB1*0301 (human) it was 1030 nM; in the experiment with HLA DRB1*0401 (human) [2], 758 nM; with HLA DRB1*0404 (human) [3], 1150 nM; with HLA DRB1*0405 (human) [4], 733 nM; with HLA DRB1*0701 (human) [5] it was 11500 nM. The IC50 with HLA DRB1*0802 (human) [6] turned out to be 512 nM; in the experiment with HLA DRB1*0901 (human) [7] it was 13.6 µM; with HLA DRB1*1101 (human) [8], 158 nM; with HLA DRB1*1201 (human) [22], 4.95 µM; with HLA DRB1*1302 (human) it was 2770 nM; with HLA DRB1*1501 (human) [9], 84 nM. Moreover, the IC50 in the experiment with HLA DRB3*0101 (human) was 5.96 µM; with HLA DRB4*0101 (human) [10], 225 nM; with HLA DRB5*0101 (human) it was 6050 nM.

The record behind these values is US20100272750A1.
